# Measurements from patent publication US20250011363A1, “OPTIMIZED SHORTENED PEPTIDE THAT BINDS TO ACETYLCHOLINE RECEPTOR, AND USE THEREOF” (SKINMED CO., LTD., priority 2021, published 2025).
# Molecular target: acetylcholine receptor
# Assay: SPR, AchR immobilized on chip
Binder,Binding affinity (relative to RRQRR) (relative value to the RRQRR sequence),Binding affinity (relative to RRGVRR) (value relative to the RRGVRR sequence)
RRQRRA,113,
VRRQRR,135,
RRQRRV,120,
CRRQRR,123,
RRQRRC,126,
PRRQRR,133,
RRQRRP,137,
LRRQRR,144,
RRQRRL,141,
IRRQRR,121,
RRQRRI,133,
MRRQRR,119,
RRQRRM,122,
WRRQRR,138,
RRQRRW,129,
FRRQRR,143,
RRQRRF,132,
SRRQRR,121,
RRQRRS,113,
TRRQRR,103,
RRQRRT,117,
YRRQRR,130,
RRQRRY,105,

Binder,Binding affinity (relative to RRQRR) (relative value to the RRQRR sequence),Binding affinity (relative to RRGVRR) (value relative to the RRGVRR sequence)
NRRQRR,113,
RRQRRN,109,
QRRQRR,105,
RRQRRQ,101,
KRRQRR,173,
RRQRRK,175,
RRRQRR,189,
RRQRRR,192,
HRRQRR,164,
RRQRRH,158,
DRRQRR,163,
RRQRRD,65,
ERRQRR,147,
RRQRRE,37,
GRRGVRR,,137
RRGVRRG,,105
ARRGVRR,,134
RRGVRRA,,118
VRRGVRR,,140
RRGVRRV,,149
CRRGVRR,,128
RRGVRRC,,131
PRRGVRR,,138

Binder,Binding affinity (relative to RRQRR) (relative value to the RRQRR sequence),Binding affinity (relative to RRGVRR) (value relative to the RRGVRR sequence)
RRGVRRP,,142
LRRGVRR,,149
RRGVRRL,,146
IRRGVRR,,126
RRGVRRI,,138
MRRGVRR,,124
RRGVRRM,,127
WRRGVRR,,134
RRGVRRW,,134
FRRGVRR,,139
RRGVRRF,,137
SRRGVRR,,117
RRGVRRS,,118
TRRGVRR,,105
RRGVRRT,,113
YRRGVRR,,145
RRGVRRY,,101
NRRGVRR,,109
RRGVRRN,,105
QRRGVRR,,101
RRGVRRQ,,105
